Assay results taken from patent publication US20240076396A1 (Regeneron, published 2024).

Molecular target: human GITR-L (6His.GCN4.G4Sx3.hGITR-L) (human, UniProt Q9UNG2 52-177)
Assay: ELISA: hGITR.mmH (3.4 pM to 200 nM) on plate-coated hGITR-L, anti-cMyc-HRP detection
Experimental: FIG. 13 depicts effects of anti-GITR antibody on human GITR binding to human GITR-L. Binding of human GITR protein, hGITR.mmH, at a range of concentrations (3.4 pM to 200 nM) to immobilized human GITR-L was evaluated by ELISA and EC₅₀ values for binding were determined. A fixed concentration of recombinant hGITR.mmH (1.5 nM), based on the EC₅₀ values calculated for binding to hGITR-L, was pre-incubated with mAb1, or an IgG1 isotype control at a range of concentrations (51 pM to 3 μM) and added to wells containing immobilized human GITR-L to determine the ability of the antibodies to block hGITR.mmH binding to immobilized human GITR-L. Binding of hGITR.mmH was detected with an HRP-conjugated cMyc antibody using TMB substrate, and the OD₄₅₀ was measured by spectrophotometry.
The binding of recombinant hGITR to its ligand, hGITR-L, was determined using an enzyme-linked immunosorbent assay (ELISA)-based binding assay. […] Plate-bound hGITR.mmH was detected with horseradish peroxidase (HRP) conjugated goat anti-cMyc antibody at 0.33 μg/ml and visualized using the colorimetric HRP substrate 3-3′, 5-5′-tetramethylbenzidine (TMB) according to the manufacturer's recommended procedures. Absorbance data at 450 nm (OD₄₅₀) were plotted as a function of the concentration of recombinant hGITR.mmH. […]

Chain of human GITR-L (6His.GCN4.G4Sx3.hGITR-L) (Q9UNG2 52-177): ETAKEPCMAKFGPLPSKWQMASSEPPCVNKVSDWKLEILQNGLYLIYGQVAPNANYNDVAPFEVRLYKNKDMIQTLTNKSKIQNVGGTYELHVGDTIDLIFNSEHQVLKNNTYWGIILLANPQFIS

EC50: 2.05 nM
B1: hGITR.mmH (soluble monomeric recombinant human GITR ectodomain protein) (receptor)
chain: QRPTGGPGCGPGRLLLGTGTDARCCRVHTTRCCRDYPGEECCSEWDCMCVQPEFHCGDPCCTTCRHHPCPPGQGVQSQGKFSFGFQCIDCASGTFSGGHEGHCKPWTDCTQFGFLTVFPGNKTHNAVCVPGSPPAEPEQKLISEEDLGGEQKLISEEDLHHHHHH
notes: also called monomeric human GITR
